Test results taken from the NTF2 design screens of Basanta et al. (2020).

Experiment: protease stability score; higher = more stable; yeast display proteolysis, trypsin and chymotrypsin;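 also: log10 excess protease needed over predicted unfolded state with 0 meaning unfolded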
Work on “DEEQLKHVAEQLRRLWENNDENQIAQLMDENVEVQVGDKTLHGRDDVRKWAQDLRKSADHVKVHSIRNRGDKVQMDFVVENNGRQTKMEVIAHVHNGRIKSLKLRTK” yielded a protease stability score of 1.16.
With “DEEQLKKVVEKLLQAIQNGNLDEIKKMLKDDVTFVLGDKTFRGVEQAVKIVKQLVDKGAEFHVERLEVKGDQAHVKTYWHAGDKTMELTVTYNVRDDKVEKVQADWSEEVKKARKHD” the protease stability score was 0.985.
Work on “DEEQLKMARELFEIMHTGDPDQLKEQFPPDAHFNIGDKRVSGMTEFARQVENEHKEQRRSIDIKSMDVNSPHVTIQARFEVEHNGQPHTSTATIQFQFQNGRFLNMRVQSHQ” yielded a protease stability score of -0.106.
With “DEEQLKTFQQAMRDEEHGNEQRVRDLFDPNARVVYGDKVVHGREEMVKKLKRRKDEMRVELRVREYKVEEDHMSATLEVINDHNGKPDTDKQTVEARMNGDQFEQVNIQKDS” the protease stability score was 0.17.
Work on “DEEQLKTIREWMNQVQRGNFDQWAKNLDKNAHVDYGDRSVTGREEWQRLMRRQKREIRMQVKVDHVSAQGENIEVQARVRFTHNGQPDETNNKITAKVHNGRVKHMRVEEDK” yielded a protease stability score of 0.248.
Work on “DEEQLQREANEYNKLRRHGDPDRIVELADPNARAHVGDKRVHGREDMKRMVEEERKHADHITFTDFRVDGDKLEILFVITHNGQSDTRIMTIQWDNGKIKRLEVKNN” yielded a protease stability score of 0.381.
In the case of “DEEQMDRFKDLKHALDEGDEDRLKNLVDPNARMRYGDKEVTGMEDIARQQVQRVNEINVEVDRMHVQVHNGTLEIHATVTENHNGKPKKYTFRATARAENGRFVHRVQETRG”, the protease stability score is reported as -0.101.
With “DEEQMERVMQRVIKALQQGDQETVRKLGKPNGEVQAGDYRNKGPEAFVMAVDVAQKVGNKFEYKETRTKGGKMQTVVKVTVGGKTVEYEVEVVVEGGKAKEWYVRLDDDFVEQAKKS” the protease stability score was 0.514.
“DEEQMKKVVEKLVQALRNGNTDEIVRMVKEDVTFKLSDETYRGQEDVRKMAKQLQDKGNKMELKHKEAKGDEAEVVTVWHVGDKTAKLKVRYVVKDDKVEKVQADWSEEVVKAYKHG” gave a protease stability score of 0.122.
Work on “DEEQMKKVVEQLLQALQNKDPEKIVQLVDEDVEFTLVDEKYKGHEDVRKLVKKLVDAGAEFRIDRHEATGDQAHVDTQWKVGDYTLKVTVTYVVRDDKVEKVEIRWSEEAKKAMKEG” yielded a protease stability score of 1.11.
In the case of “DEEQNEHFSKVLQHGDFDRLAELMDPNAKAEVGDKTVHGREEFQRWIEHFKRQVDHIQYDRIDYHGNEIHASVRVHVNGNTIEFNVSLEFKNGRVTSFMMKARTKDDEDELRRLQS”, the protease stability score is reported as 1.47.
Sequence “DEEQNKLADTAMEAWNHGDPDQMVKMLDPNARVRYGDKQFHGRTDVKKWMKRLNDQARMSVTHYKIRVKGEKALLTARLEFEINGQPFRRHVKVVFNNHNGKAKQVDWQFDQDKQRKIES” has a protease stability score of 0.152.
“DEEQNRRIDDMWRAEENGDENRMKELADPNVELQIGDKQVHGMDEYVKEAKKRRDKSEISIEIKQVEVHNGSVHVDFVFTENENGTPDSKRVHVNARFDNGKLKSMSQNDTE” gave a protease stability score of 1.1.
For “DEEQNTRFHRMLEDLKTGNEERVQDYMDPNVKVRIGNNVLDGREHAATHMVQLNREIRFHIHNFTVQVHNGRLDIKANADADVNGKPIKFSYERYAILHNGTIKRMREQFDEHLKRQLDR”, the protease stability score was -0.013.
“DEEQQKEQKKRLREMIETNNEDELQRQADKDVKVVVGDQTYHGREEARKWVHELKRRVDHVRVDRVEAHGNKISARYRASVNGETQRYNMVIHITNGRIQHMRVTEG” gave a protease stability score of 0.894.
For “DEEQRKRMAEKFRNAIQRNDDDKIRELAPPDVSARYGDKEVHGREELLKYIDRLHKEADRIDVHDLHVKGETIILTLVVNINGHNHRYNFVAHIHDGRMHRMKVESR”, the protease stability score was 1.21.
For “DEEQRLKQVFDTLVKAFEDNDEDQIRDMMDPNVTVRVGDKEVHGRDEVARRVVDERRKVDHVHNDIKDYRVRGNHLVMKIDQVFNHNGETRKQTATMVVKVHDGRAVVETLHYD”, the protease stability score was 1.09.
“DEEQRRMVQELFKALQHGDPDKVEELVDPNAQLHYGDKTVTGREEMHRWIEHLLDKIRIHFQRVSVRSRNGRAIAHATVEVVFNGKPDTVTFDLEANVHNGKFRRIVLRFPEEAQKKLKR” showed a protease stability score of 1.48.
Sequence “DEEQTLRERFNTLKRAQDHNDEEDLRRMMDENVKVRIGDEDVHGRETANEQFARMLRRVDHVRLRLKTMHVHGEKYQFRFELQLTVNGRHEHRDVRIRFDNVNGRTNIVEMEVG” has a protease stability score of 0.35.
With “DEEQVEHAMNRLVQALRSGDEKKLLDLAPEDVKMRIGDREFHGREDFEKAVKEFVDRVDHFQFEDVSIRGDDIFIHVWNQVNGRRHKQVITVKAHNGRMKHMVLDTP” the protease stability score was 0.983.
With “DEEQVEHMRRIVQEGDFDELKDNADPNARVQVGDKRYHGREQVQHVMKNFRDKADHVEISSIKQDEDHVSAEMHVEVNGERFVIRIHFVVHNGRLEQINIQVTSERDQKKLKKMLD” the protease stability score was 0.185.
Work on “DEEQVKKVLETLVKALQKGNIEEILKMLKEDVEFVLIDEKYQGREDAKKIVKQLVDQGMEVHFDRHEVTGNQAHVQTRWHYGNKEAHAEVTYYVKGDTVDKVDIQWSETAKKAVKEG” yielded a protease stability score of 1.13.
“DEEQVKKVVEELLKAVHNGNVDQIKKIVKENVEFTLGDKTMKGQEDVEKDVKQLHDKGADFKVDEVEVTGDHATANTKWQIGDQKAHVQVHYQVRDDTVERVEVRWSEDAKKAIKQG” showed a protease stability score of -0.141.
“DEEQVKKVVKVLMEYFKRGDVDQIVRMIDEDVEFKLLDEKKKGQEQVKTVIKKLHDQGAEVHVDHAEVEGDKATVDTRWHIGDHTMEATVEYYVEGDRVKKVKVQWSEEAKKALHAG” showed a protease stability score of 1.06.
In the case of “DEEQVNKVRTLVESNDEKTMQELADPNAKAEIGNKRFHGMHRAAHVLTKLRKQADTVRYREIDVHNGQVHAHFSMHFNGKRIDARVVLKVRNGRLRHMKIEATDPHLEEELERQVQ”, the protease stability score is reported as 0.268.
Sequence “DEEQVQKVVDKLIKAVQNGNRKQIVDLVKENVEFTLADETYKGKDDVQTVIKRLHEVGAEVHVDRYDVRGDTAHADTRWHMDDQEMHVTVEYVVRGDRVEQVHVQWSEEAKKVHKKG” has a protease stability score of -0.044.
“DEEQVREAMEIVKHGDPDKFRKQADKDVRLTIGDTEYHGREDVMTVLVSFLRTVDHLNIKSVDVRGDKAVINADFNYNGKEININIHLEFHNGRLKSVQIQATNREDQKDLKRIIK” showed a protease stability score of 1.28.
Work on “DEEQVRKMLETILKMMVNGNLEEVKKVLKPNVDYQLGDEKLQGQQVAERADKYIKKVGVRAEIKRAKVEGDTAELDYEFTADGRTVRVTVQAHAKDGRLDQWRVEVSDTAKKIRQKG” yielded a protease stability score of 0.736.
“DEEQVRKVVEQLLKMLQNKNTEEIVKLVKEDATFTLGDETRRGQEDVRKLVQRLKEQGAEFHTHEVRVKGGEAKAKTQWHVANREVHAEVKYVVRGDKVEKVEVRWSEEAKKALKEG” gave a protease stability score of -0.071.
For “DEEQVTKAKNLLENWKTNNPEEVKKLADPNARAQIGDQVIHGMDKYVTFLHKQRSKMRFELHIRSMTADNGRVKMTFDHVVDHNGRPDKNDARMSVQFENGKIKELVIQKDK”, the protease stability score was -0.295.
“DEERAAHNALRALEAMLTGDEKKADELADKDVRVNVGDRVYDGDEKMQKFVRELRKRYDHFHFRTYSHDGDKVKANVILNVNGRNVEIIFYLHAHNGKLKSVRVEVRNPELLKNLTS” showed a protease stability score of 1.23.
Work on “DEERADELVELLTNNNFQSLADNADPNASIEYGDKTIRGRDEANKFLQNIERRADHVEIKSLKTKGNKIDIDLVVHVNGQKLRFKVEIKLRNGKVTHIRIQATSERDQRKFLEVVG” yielded a protease stability score of 1.06.
Sequence “DEERAKQLMEKAFKMIRNGNEEVVRKMLKPNGRYEYIDKKFEGEEAAKFVVQLVQKVGAEDKVKRKEVKGDTAKMDFDYHKGDKTVRTTAEVIYKGDKMEQARVELTDEVKKIVHQG” has a protease stability score of 0.046.
In the case of “DEERAKQVADKVFKYAINGDEEKMQKQLDPNVEYKYADTEYEGEDAARAIVRLVKQVGMEVKTQRQEVKGNTMQADFRYHNGDKEVQTTARVEYEGDKVKKVEVKVTDEVKKEAHKG”, the protease stability score is reported as -0.068.
Work on “DEERAMKDAVDRMEKNVKNGNFDKMMNLADKDAKVVVGDDTYRGRDNNVKKNKEDKEEFDHAEVRFKEVEVENGRISIHADITLNVNGQDVTRRFNFELRNHNGTALIVRLTLK” yielded a protease stability score of 0.188.
In the case of “DEERAQHLVDQIFRAFKRGDPEQFKKMFDPNARMHVGDQRYHGREDIIKFLQEIREQADTITLRKVTVHNGQADIIVDVQVDGRRVRIQILINYHNGKVKSLKIHYTDEELQKEIES”, the protease stability score is reported as 1.56.
